To fix the notation:
B1: Hammerhead Ribozyme (parent)
chain: ACCGGAUGUGCUUUCCGGUCUGAUGAGUCCGUGAGGACGAAACAG

Variants of B1 are the subject of this data set. Put plainly: self-cleavage, relative activity (ratio to wild type); higher = more cleavage; co-transcriptional.
For the variant C2G G4U, the self-cleavage turned out to be 0.219. As for C2G G4C, the figure is 0.233.

As for C2G G4A, the self-cleavage stood at 0.322.

Take C2G A26G: the self-cleavage was found to be 0.292. As for C2G A26C, the figure is 0.341; as for C2G A26U, 0.315; as for C3A, 0.772.

Regarding C2U A34C, the self-cleavage came out at 0.933. C2U A34G: the self-cleavage was determined as 0.841. As for C2U A34U, the figure is 0.972; as for C2U G35C, 0.647. As for C2U G35A, the figure is 0.871. As for C2U G35U, the figure is 0.757; as for C3A C20G, 0.254. Turning to C3A C20A, the self-cleavage turned out to be 0.348. Consider C3A C20U, for which the self-cleavage was 0.319. As for C2G G5A, the figure is 0.295.

For the variant C2G G5C, the self-cleavage is 0.309. As for C2G G5U, the figure is 0.296; as for C2U C29A, 0.701; as for C2U C29U, 1.29.

Take C2U C29G: the self-cleavage came to 1.02. As for C2G C20G, the figure is 0.297.

For C2G C20A, the self-cleavage worked out at 0.274. As for C2G C20U, the figure is 0.344; as for C2G G31U, 0.503. As for C2G G31A, the figure is 0.43; as for C2G G31C, 0.376; as for C2U A37C, 0.782.

Turning to C2U A37U, the self-cleavage was 0.849. As for C2U A37G, the figure is 1.01. As for C2U A23C, the figure is 0.558; as for C2U A23U, 0.415; as for C2U A23G, 0.385.

Take C2A U21A: the self-cleavage amounted to 0.351. As for C2A U21G, the figure is 0.291.

As to C2A U21C, the self-cleavage turned out to be 0.402.

Turning to C2U U7A, the self-cleavage amounted to 1.58. As for C2U U7G, the figure is 1.72; as for C2U U7C, 0.541; as for C3A G5U, 0.28.

Turning to C3A G5C, the self-cleavage is 0.319. C3A G5A: the self-cleavage was 0.319. As for C2U G5A, the figure is 0.633. As for C2U G5U, the figure is 0.535; as for C2U G5C, 0.364. As for C3A C16U, the figure is 0.557; as for C3A C16A, 0.596; as for C3A C16G, 0.438.

Regarding C2G A6G, the self-cleavage was 0.292.

With C2G A6U, the self-cleavage is 0.321. C2G A6C: the self-cleavage worked out at 0.196. As for C2U A26G, the figure is 0.34; as for C2U A26U, 0.89.

Consider C2U A26C, for which the self-cleavage came out at 0.514. With C2U G4C, the self-cleavage stood at 0.397. As for C2U G4A, the figure is 0.361; as for C2U G4U, 0.335; as for C2U C20G, 0.37. As for C2U C20U, the figure is 0.797; as for C2U C20A, 0.63; as for C2U G36A, 0.698. For the variant C2U G36U, the self-cleavage came out at 0.488. Consider C2U G36C, for which the self-cleavage came to 0.371.

In the case of C3A A41C, the self-cleavage worked out at 0.299. In the case of C3A A41G, the self-cleavage came out at 0.262. As for C3A A41U, the figure is 0.259.

Turning to C2U U13G, the self-cleavage stood at 1.24.

On to C2U U13A, for which the self-cleavage stood at 1.52. As for C2U U13C, the figure is 1.34.

As for C2U C3A, the self-cleavage worked out at 0.417. In the case of C2U C3G, the self-cleavage was 0.319. Regarding C2U C3U, the self-cleavage stood at 0.588. As for C2G G39A, the figure is 0.342; as for C2G G39U, 0.268. For C2G G39C, the self-cleavage came out at 0.289. As for C2G A34U, the figure is 0.347; as for C2G A34G, 0.279. In the case of C2G A34C, the self-cleavage was 0.352.

In the case of C2U C30U, the self-cleavage was 1.04. As for C2U C30G, the self-cleavage worked out at 0.876.

For C2U C30A, the self-cleavage turned out to be 0.893. Consider C2U G31A, for which the self-cleavage worked out at 1.11. Consider C2U G31C, for which the self-cleavage is 0.974. With C2U G31U, the self-cleavage worked out at 1.12.

With C2U G45C, the self-cleavage worked out at 0.868.

As to C2U G45U, the self-cleavage came out at 0.835.

For C2U G45A, the self-cleavage was 0.873. For the variant C2G C29A, the self-cleavage came to 0.311.

With C2G C29U, the self-cleavage was 0.365. As for C2G C29G, the self-cleavage turned out to be 0.354. As for C2G G18C, the figure is 0.651; as for C2G G18U, 0.669. As for C2G G18A, the figure is 0.459.

With C2U G22C, the self-cleavage was 0.323. As for C2U G22U, the figure is 0.376. For C2U G22A, the self-cleavage came out at 0.341. As for C2G U7A, the figure is 0.364; as for C2G U7G, 0.364. As for C2G U7C, the figure is 0.373. As for C2G C3A, the self-cleavage worked out at 0.283.

For C2G C3U, the self-cleavage worked out at 0.36. As for C2G C3G, the figure is 0.353; as for C2G G35U, 0.272; as for C2G G35A, 0.271. As for C2G G35C, the figure is 0.339; as for C2U C16U, 1.07; as for C2U C16A, 0.367. As for C2U C16G, the figure is 0.356.

For C2G A41U, the self-cleavage was 0.293. On to C2G A41G, for which the self-cleavage was found to be 0.369. As for C2G A41C, the figure is 0.271. C2G U28A: the self-cleavage amounted to 0.37.

As for C2G U28G, the self-cleavage was 0.315. As for C2G U28C, the figure is 0.262; as for C2U U21A, 0.962. Regarding C2U U21C, the self-cleavage came to 0.273.

For C2U U21G, the self-cleavage came out at 0.742.

Regarding C2U A42G, the self-cleavage worked out at 0.467. With C2U A42C, the self-cleavage turned out to be 0.358.

In the case of C2U A42U, the self-cleavage came out at 0.301. For the variant C2U U24A, the self-cleavage is 1.05. As for C2U U24G, the figure is 1.29; as for C2U U24C, 1.35.

For C2U C15G, the self-cleavage turned out to be 0.385.

Turning to C2U C15U, the self-cleavage came out at 0.76. As for C2U C15A, the figure is 0.397; as for C3A A42C, 0.313; as for C3A A42G, 0.279.

On to C3A A42U, for which the self-cleavage came out at 0.356.

Take C2G A44G: the self-cleavage is 0.627. With C2G A44C, the self-cleavage was 0.322. As for C2G A44U, the figure is 0.323; as for C2G C16U, 0.299; as for C2G C16G, 0.294. As for C2G C16A, the figure is 0.335; as for C2G G27U, 0.327; as for C2G G27A, 0.282. As for C2G G27C, the figure is 0.303; as for C2A U28A, 0.394; as for C2A U28G, 0.308.

In the case of C2A U28C, the self-cleavage stood at 0.417. Consider C2U U28A, for which the self-cleavage came to 0.445.

For the variant C2U U28C, the self-cleavage amounted to 0.79.

Take C2U U28G: the self-cleavage stood at 0.7. For C3A C29G, the self-cleavage came out at 0.397.

In the case of C3A C29U, the self-cleavage was determined as 0.534.

C3A C29A: the self-cleavage worked out at 0.406. As for C2G U14A, the figure is 0.314; as for C2G U14G, 0.309; as for C2G U14C, 0.317.

As to C2G C38U, the self-cleavage stood at 0.338.

For C2G C38G, the self-cleavage is 0.317. Regarding C2G C38A, the self-cleavage worked out at 0.336. As for C2U U14C, the figure is 0.474; as for C2U U14A, 0.8. As for C2U U14G, the figure is 1.11; as for C2G U19G, 0.275; as for C2G U19C, 0.308.

With C2G U19A, the self-cleavage was found to be 0.294. As for C2G U24C, the figure is 0.383; as for C2G U24G, 0.356; as for C2G U24A, 0.476. As for C3A C38A, the figure is 0.315; as for C3A C38G, 0.329; as for C3A C38U, 0.515. As for C2U G10C, the figure is 1.5.

The values above are taken from the RNAGym collection of RNA variant scans (doi:10.7554/elife.80360).
